Results as given in the nanobody polyreactivity screen of Harvey et al. (2022).

Assay: yeast display, Sf9 membrane polyspecificity reagent, FACS + sequencing; frameworks hold sequencing errors
In short: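 A nanobody's polyreactivity label depends on the gate it was sorted from. Yeast display cells were stained with 10% biotinylated, detergent-solubilized Sf9 membrane reagent for 1 hour at 4 °C, enriched on streptavidin microbeads and sorted by FACS. The low and high (top ~1%) gates were set on anti-HA fluorescence for expression and streptavidin fluorescence for reagent binding.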

Sequence	polyreactivity (PSR sort gate)
QVQLVESGGGLVQAGGSLRLSCAASGSIFPAYAMGWYRQAPGKERELVAAITGSGGSTYYADSVKGRFTISRDNAKNTVYLQLNSLKPEDTAVYYCAATIRQFRRYDYWGQGTQVTVSS	low polyreactivity
QVQLVESGGGLVQAGGSLRLSCAASGSIFGWYVMGWYIQAPGKERELVAAISSVGSTYYADSVKGRFTISRDNAKNTVYLQMKSLKPEDTAVYYCAKLRYPYLFWDDSEYWGQGTQVTVSS	low polyreactivity
QVQLVESGGGLVQAGGSLRLSCAASGFIFVYYAMGWYRQAPGKERELVAAISKRGGNTYYADSVKGRFTISRDNAKNTVYLQMNSLKPEDTAVYYCAADGPGHYYAELEYDYWGQGTQVTVSS	high polyreactivity
QVQLVESGGGLVQAGGSLRLSCAASGSTLDRNTMGWYRQAPGKERELVAAITSSGGRTYYADSVKGRFTISRDNEKNTVYFQMNSLKPDDTAVYYCNNDYWKRPVDEYDYWGQGTQVTVSS	high polyreactivity
QVQLVESGGGLVQEGGSHRLSCAASASTFWSYTMGWYRQAPGKERELVAAISPSGGSTSYADSVKGRFTISRDHAKNTVYLQMNSLKPEDTAVYYGAADDRYGSRYSYWGHGTQVTVSS	high polyreactivity
QVQLVESGGGLVQAGGSLRLSCAASGRTFYTYVMGWYRQAPGKEREFVAAITYSGGSTYYADSVKGRFTISRDNAKNTVYLQMNSLKPEDTAVYYCNDEWTYSEWYGQYLEFDYWGQGTQVTVSS	high polyreactivity
QVQLVETGGGLVQAGGSLRLSCAASGNMFVTYDMGWYRKAPGKERELVASISWNGGSTNYADSVKGRFTISRDNAKNTVYLQMNSLKPEDTAVYYCAVDYARDKGYPYGYWGQGTQVTVSS	low polyreactivity
QVQLVESGGGLVQAGGSLRLSCAASGIIFGRYAMGWYRQAPGKERELVAAINGSGGSTYYADSVKGRFTISRDNAKNTVYLQMNSLKPEDTAVYYCAANGFLRNGYWGQGTQVTVSS	high polyreactivity
QVQLVESGGGLVQAGGSLRLSCAASGSILSVNAMGWYRQAPGKERELVAAINWSGGSTYYADSVKGRFTISRDNAKNTVYLQMNSLKPEDTAVYYCAARWRYSYVGDFDYWGQGTQVTVSS	high polyreactivity
QVQLVESLGGLLHAGGSLRLSCGASGSIFGSNALGWYRQAPGKERELVAAINYSGGSTTYADSVKGRFTISRDNAKNTVYLQMTSLKPEDTAVYYCNADVLYQFDEGVWSDYWGQGTQVTVSS	low polyreactivity
QDQLVESGGGLVQAGGSLRLSFAASGSIFGVNALGWYRQAPGKERELVAAISARGGSTYYADSVKGRFTISRDNAKNTVYLQMNSQKPEDTAVYYCAATFRARPRENYWGQGTQVTVSS	high polyreactivity
QVQLVESGGGLVQAGGSLRLSCAASGITFKDYAMGWYRQATGKERELVAVISYSGGSTYYADSVKGRFTISRDNAKNTVYLEMNSLKPEDTAVYYCAARVGPEYDWGQGTQVTVSS	low polyreactivity
QDQLVESGGGSVQAGGSLRLSCAAYGRIYILYAMGWYRQAPGQERELVAAISWSGGSTYYADSVKGRFTISRDNAKKTVDGQRNSLKPEYTAVYYCNVVSKYKHTYDFDYWGQGTQVNVSS	high polyreactivity
QVQLVESGGGLVQAGGSLRLSCAASGRTFSRYAIGWYRQAPGKERDLVAAITRTGGSTYYADSVKGRFTISRDNAKNTVYLQMNSLKPEDTAVYYCAAAYPGVWYDYNYWGQGTQVTVSS	high polyreactivity
QVQLVESGGGLVQAGGSLRLSCAASGITILRYAMGWYRQAPGKERELVARITRSGGSTYYADSVKGRFTISRDNAKNTVYLQMNSLKPEDTAVYYCNDVRSAGDGDYWGQGTQVTVSS	high polyreactivity
QVQLVESGGGLVQAGGSLRLSCAAAGLIFRFYAMGWYRQSPGKERELVAAISSRGGSRYYADSVKGRFTISRDNAKNTVYLQMNSLKPEDTAVYYCAAAVRKMAYPHYEYGYWGQGTQVTVSS	high polyreactivity

Sequence	polyreactivity (PSR sort gate)
QVQLVESGGGLVQAGGSLRLSCAASGIIFRRYAMGWYRQAPGKERELVAAITSGGSTYYADSVKGRFTISRDNAKNTVYLQLHSLKPEDTAVYYCNKGGYAIRYDYYWGQGTQVTVSS	high polyreactivity
QVQLVESGGGLVQAGGSLRLSCAASGSTFYTYTMGWYRQAPGKERALVAAISSSGGDTYYADSVKGRFTISRDNAKNTVYLQMNSLKPEDTAVYYCAALGAFPSLEFDYWGQGTQVTVSS	low polyreactivity
QVQLVESGGGLVQAGGSLRLSCAASGSIFPKNAMGWYRQAPGKERELVAGITSRTGRTYYADSVKGRFTISRDKAKNTVYLQMNSLKPEDTAVYYCAARIGGGPVKYDYWGQGTQVTVSS	high polyreactivity
QVQLVESGGGLVQAGGSLRLSCAASGIIFKYYVMGWYRQAPGKERELVASIRWSGGITSYADSVKGRFTISRDNAKNTVYLQMNSLKPEDTAVYYCAVAHSRLRTAYTFSVQRYDYWGQGTQVTVSS	low polyreactivity
QVQLVESGGGLVQAGGSLRLSCAASGSTFRSNAMGWYRQAPGKERELVAAISRRGGSTYYADSVKGRFTISRDNAKNTVDLQMNSLKPEDTAVYYCAKGYIGFPISSFLYDYWGQGTQVTVSS	high polyreactivity
QVQLVESGGGLVQAGGSLRLSCAASGSTFTGYAMGWYRQAPGKERELVAAISRSVGRTYYADSVKGRFTISRDNAKNTVYLQMNSLKPEDTAVYYCAADVYLTGSRNYYWGQGTQVTVSS	high polyreactivity
QVQLVESGGGLVQAGGSLRLSCAASGFTSGNYAMGWYRQAPGKERELVAAIDSDGSTYYADSVKGRFTISRDNAKNTVYLQMKSLKPEDTAVYYCNKDIKSATDSYHYEDDYWGQGTQVTVSS	low polyreactivity
QVQLVESGGGLVQAGGSLRLSCAASGRIFVFYAMGWYRQAPGKERELVAAISKSVGPTYYADSVKGRFTISRDTAKNTVYLQMNSLKPADTAGYYCNKRSASDLWPQYGYWGQGTQVTVSS	low polyreactivity
QVQLVESGGGLVQAGGSLRLSCAASGSIFHTYAMGWYRQAPGKEWELVAAISTDGSTYYADSVKGRFTISRDNAKNTVYLQRNSLKPEDTAVYYCNVAAKYDSFHRGITWYDYWGQGTQVTVSS	low polyreactivity
QVQLVESGGGLVQAGGSLRLSCAASGRTFPYNTMGWYRQAPGKERELVASISYRGGTYYADSVKGRFTISRDNAKNTVYLQMNSLKPEDTAVYYCNAVYYFSPSYRGYYWGQGTQVTVSS	high polyreactivity
QGQRVESGGGLVQAGGSLRLSCAASGSTFEDNAMGWSRPAPGKERELVAAITTGGGSTYYADSVKGRFTISRDNAKNTVYLQMNSLKPEDTAVYYCAADWSYYYSRNYESDYWGQGTQVTVSS	low polyreactivity
QVQLVESGGRLVQAGGSLRLSCAASGFIFVGNDMAWYRQAPGKVRELVAAISSGGTTNYADSVKGRFTNSRDNAKNTVYLQMNSLKPEDTAVYDCAADYDYRQGYDSVHLDYWGQGTQVTVSS	low polyreactivity
QVQLVESGGGLVQAGGSLRLSCAASGRTFYYNGMGWYRQAPGKERELVAAITSGGTTSYADSVKGRFTISRDNAKNTVYLQMNSLKPEDTAVYYCAKRTVPRYEYWGQGTQVTVSS	low polyreactivity
QVQLVESGGGLVQAGRSNRLSCAASGSLFPDYTMGWYRQAPGQERELVAGSTWNRGGTYYADSVKGRFTISRDNAKNTVYLQMNILKPEDTAVYYCAAEWSGSRSSGAWGPYNYWGQGSQVTVSS	low polyreactivity
QVQLQESGGGLVQAGGSLRLSCAASGNIVDADIMGWYRQAPGKERELVASITDGGSTNYADSVKGRFTISRDNAKNTVYLQMNSLKPVDTAVYNCAAIAYPDIPTYFDYDSEYFYWGQGTQVTVSS	low polyreactivity
